In assay [1] the target is syndecan-4 (SD-4), human (human) (UniProt P31431). The experiment in a line: cell-based or functional assay.
Assay [2] has as its target PD-1 on human peripheral blood CD4+ T cells (human) (UniProt Q15116). The experiment in a line: cell-based or functional assay.

Chain of PD-1 on human peripheral blood CD4+ T cells (human) (Q15116 25-288): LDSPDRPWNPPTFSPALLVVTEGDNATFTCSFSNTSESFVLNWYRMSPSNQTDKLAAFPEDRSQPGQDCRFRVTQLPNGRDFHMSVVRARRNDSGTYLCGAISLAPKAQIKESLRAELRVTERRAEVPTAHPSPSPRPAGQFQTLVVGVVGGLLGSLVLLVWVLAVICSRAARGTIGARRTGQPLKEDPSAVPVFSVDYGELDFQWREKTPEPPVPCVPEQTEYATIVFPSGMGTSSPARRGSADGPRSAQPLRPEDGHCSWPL
Chain of syndecan-4 (SD-4), human (human) (P31431 19-198): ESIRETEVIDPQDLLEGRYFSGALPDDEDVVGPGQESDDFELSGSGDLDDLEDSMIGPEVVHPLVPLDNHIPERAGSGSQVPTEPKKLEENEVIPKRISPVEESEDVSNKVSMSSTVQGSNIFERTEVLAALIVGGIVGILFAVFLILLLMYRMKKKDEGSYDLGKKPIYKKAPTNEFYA
Chain of saporin-conjugated DC-HIL (human DC-HIL-Fc, biotinylated and conjugated with streptavidin-saporin) (Q14956 23-498): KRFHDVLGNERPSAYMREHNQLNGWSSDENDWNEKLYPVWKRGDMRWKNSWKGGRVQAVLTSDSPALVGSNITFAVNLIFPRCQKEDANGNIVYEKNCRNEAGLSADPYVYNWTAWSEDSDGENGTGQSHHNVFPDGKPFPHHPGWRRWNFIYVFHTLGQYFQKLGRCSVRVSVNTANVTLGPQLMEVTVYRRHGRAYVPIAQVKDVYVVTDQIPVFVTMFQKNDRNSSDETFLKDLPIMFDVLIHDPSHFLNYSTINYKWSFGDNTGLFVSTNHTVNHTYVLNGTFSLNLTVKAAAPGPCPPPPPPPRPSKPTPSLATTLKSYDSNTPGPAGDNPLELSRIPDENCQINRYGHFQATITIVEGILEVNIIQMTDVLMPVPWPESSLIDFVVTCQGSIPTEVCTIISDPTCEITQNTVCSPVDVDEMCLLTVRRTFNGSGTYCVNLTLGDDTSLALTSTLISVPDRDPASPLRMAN

For the substance “human DC-HIL-Fc (extracellular domain of human DC-HIL fused to the Fc portion of mouse IgG2a) (from UniProt Q14956 23-498) (Fc fusion)”, the IL-2 production by HUT-78 cells triggered by anti-CD3 Ab in assay [1] was less than 70%. “saporin-conjugated DC-HIL (human DC-HIL-Fc, biotinylated and conjugated with streptavidin-saporin) (from UniProt Q14956 23-498)”: in assay [1], the proliferation (3H-thymidine) of HUT-78 cells was 60 % reduction. Take anti-PD-1 Ab (MIH4) (antibody): in assay [2], the inhibition of proliferation induced by 0.3 µg/ml anti-CD3 Ab, Ab at 40 µg/ml was found to be 50 % inhibition; the reduction of T cell proliferation at 0.1 µg/ml anti-CD3 Ab was 50%; the reduction of T cell proliferation at the highest dose (3 µg/ml) of anti-CD3 Ab was determined as 10%.

The record behind these values is patent publication US20090297479A1.
